Measurements published in patent publication US20180186873A1.

What was measured:
[1] = biological target: cynomolgus monkey IL-5 (cynomolgus monkey); test: cell-based or functional assay
[2] = biological target: recombinant human IL-5 (human) (UniProt P05113); test: cell-based or functional assay

IC50, inhibition of IL-5 driven proliferation of TF-1.6G4 cells (Mean, pM) [1]: 584 pM | IC50, inhibition of IL-5 driven proliferation of TF-1.6G4 cells (Mean, pM) [2]: 534 pM
Substance: Mepolizumab (antibody)
